In data set [1] the test system is NCCCCN. Briefly: carbamylputrescine production, colorimetric (Archibald reaction); hyperbolic fit. It counts as biochemical, Enterococcus faecalis. The conditions noted are these: 10 mM carbamylphosphate, 50 mM Tris-HCl pH 7, 37°C.
For data set [2], the system named is NCCCCN. Briefly: purified protein. The conditions noted are these: 10 mM carbamylphosphate, 50 mM Tris-HCl pH 7, 37°C, 230YGLY233 replaced by VSMG.

Results on two substances are retold here after publication PMC3282769, “New Insight into the Transcarbamylase Family: The Structure of Putrescine Transcarbamylase, a Key Catalyst for Fermentative Utilization of Agmatine” (PLoS ONE, 2012).

In general, Km refers to the substrate concentration at which the rate is half of its maximum. Consider “PTC (putrescine transcarbamylase) (Enterococcus faecalis V583)”, for which the Km in data set [1] was 1.41 ± 0.22 mM.

As to “PTC (putrescine transcarbamylase) (Enterococcus faecalis V583; G231S/L232M/Y230V/Y233G)”, in data set [2], the Km stood at 32.9 ± 8.8 mM.
